Laboratory results as given in article PMC8042174.

Columns and labels:
[1] = biological target: FITC-labeled human GRK6A C-terminal 22 amino acid peptide, GRK6Act-22 (human); assay: fluorescence polarisation; fluorescence anisotropy saturation binding in solution; increasing amounts of recombinant protein added to a fixed concentration of FITC-labeled GRK6Act-22 (0.4-1.0 uM); PBS pH 7.4, 0.1% BSA, 1 mM DTT; 23 °C; 96-well format; quadratic fit
[2] = biological target: FITC-labeled human GRK6A C-terminal 22 amino acid peptide, GRK6Act-22 (human); assay: fluorescence polarisation; fluorescence anisotropy, direct saturation binding in solution; recombinant protein titrated to fixed FITC-GRK6Act-22 (0.4–1.0 μM); PBS pH 7.4, 0.1% BSA, 1 mM DTT, 23 °C; quadratic fit

Kd [1] [µM]	Kd [2] [µM]	Binder
6.6	–	NHERF1 PDZ1 domain (1-140 aa), isolated (domain or fragment) MSADAAAGAPLPRLCCLEKGPNGYGFHLHGEKGKLGQYIRLVEPGSPAEKAGLLAGDRLVEVNGENVEKETHQQVVSRIRAALNAVRLLVVDPETDEQLQKLGVQVREELLRAQEAPGQAEPPAAAEVQGAGNENEPREA
–	26.1	pSer162-PDZ2 (133–300 aa) (domain or fragment, phosphoserine at 162) NENEPREADKSHPEQRELRPRLCTMKKGPSGYGFNLHSDKSKPGQFIRSVDPDSPAEASGLRAQDRIVEVNGVCMEGKQHGDVVSAIRAGGDETKLLVVDRETDEFFKKCRVIPSQEHLNGPLPVPFTNGEIQKENSREALAEAALESPRPALVRSASSDTSEELNSQ
–	51.3	WT PDZ2 domain (133–300 aa) of NHERF1 (domain or fragment) NENEPREADKSHPEQRELRPRLCTMKKGPSGYGFNLHSDKSKPGQFIRSVDPDSPAEASGLRAQDRIVEVNGVCMEGKQHGDVVSAIRAGGDETKLLVVDRETDEFFKKCRVIPSQEHLNGPLPVPFTNGEIQKENSREALAEAALESPRPALVRSASSDTSEELNSQ
–	43.4	S162A-PDZ2 (133–300 aa) (domain or fragment) NENEPREADKSHPEQRELRPRLCTMKKGPAGYGFNLHSDKSKPGQFIRSVDPDSPAEASGLRAQDRIVEVNGVCMEGKQHGDVVSAIRAGGDETKLLVVDRETDEFFKKCRVIPSQEHLNGPLPVPFTNGEIQKENSREALAEAALESPRPALVRSASSDTSEELNSQ
–	5.3	recombinant full-length NHERF1 (natural protein) MSADAAAGAPLPRLCCLEKGPNGYGFHLHGEKGKLGQYIRLVEPGSPAEKAGLLAGDRLVEVNGENVEKETHQQVVSRIRAALNAVRLLVVDPETDEQLQKLGVQVREELLRAQEAPGQAEPPAAAEVQGAGNENEPREADKSHPEQRELRPRLCTMKKGPSGYGFNLHSDKSKPGQFIRSVDPDSPAEASGLRAQDRIVEVNGVCMEGKQHGDVVSAIRAGGDETKLLVVDRETDEFFKKCRVIPSQEHLNGPLPVPFTNGEIQKENSREALAEAALESPRPALVRSASSDTSEELNSQDSPPKQDSTAPSSTSSSDPILDFNISLAMAKERAHQKRSSKRAPQMDWSKKNELFSNL
–	> 100	recombinant N1P1-GAGA (natural protein) MSADAAAGAPLPRLCCLEKGPNGAGAHLHGEKGKLGQYIRLVEPGSPAEKAGLLAGDRLVEVNGENVEKETHQQVVSRIRAALNAVRLLVVDPETDEQLQKLGVQVREELLRAQEAPGQAEPPAAAEVQGAGNENEPREADKSHPEQRELRPRLCTMKKGPSGYGFNLHSDKSKPGQFIRSVDPDSPAEASGLRAQDRIVEVNGVCMEGKQHGDVVSAIRAGGDETKLLVVDRETDEFFKKCRVIPSQEHLNGPLPVPFTNGEIQKENSREALAEAALESPRPALVRSASSDTSEELNSQDSPPKQDSTAPSSTSSSDPILDFNISLAMAKERAHQKRSSKRAPQMDWSKKNELFSNL
–	3.6	recombinant N1P2-GAGA (natural protein) MSADAAAGAPLPRLCCLEKGPNGYGFHLHGEKGKLGQYIRLVEPGSPAEKAGLLAGDRLVEVNGENVEKETHQQVVSRIRAALNAVRLLVVDPETDEQLQKLGVQVREELLRAQEAPGQAEPPAAAEVQGAGNENEPREADKSHPEQRELRPRLCTMKKGPSGAGANLHSDKSKPGQFIRSVDPDSPAEASGLRAQDRIVEVNGVCMEGKQHGDVVSAIRAGGDETKLLVVDRETDEFFKKCRVIPSQEHLNGPLPVPFTNGEIQKENSREALAEAALESPRPALVRSASSDTSEELNSQDSPPKQDSTAPSSTSSSDPILDFNISLAMAKERAHQKRSSKRAPQMDWSKKNELFSNL
